Legend:
[1] = test system: polyclonal, rabbit anti-DbpA (625); experiment: ELISA recognition of DbpA-peptides by polyclonal anti-DbpA serum; format: binding; details: 2 μg peptide/well, 1:1000 anti-DbpA serum, FIG. 2
Protocol: Immulon-1 microtiter plate wells (Dynatech Labs, Chantilly, Va.) were coated with 2.0 μg of each peptide in 50 μl of PBS overnight at 4° C. The wells were washed and then blocked with 400 μl of Super Block (Pierce, Rockford, Ill.). All incubations were done at 37° C. and all dilutions were made using Super Block. After washing, 100 μl of a 1:1000 dilution of polyclonal, rabbit anti-DbpA (625) (17) was added for 1 hr. After washing, 100 μl of a 1:1000 dilution of AP-conjugated anti-rabbit IgG (Bio-Rad, Hercules, Calif.) was added for 1 hr. The wells were washed and incubated with 100 μl of a 1 mg/ml of Sigma 104 phosphatase substrate (Sigma Chemical Co., St. Louis, Mo.) dissolved in 1 M diethanolamine, 0.5 mM MgCl2, pH 9.8. Plates were washed with 0.05% PBS-Tween 20 between all steps. The absorbance at 410 nm was determined in a Microplate Reader (Molecular Devices, Menlo Park, Calif.).
Immunizations utilizing peptide formulations require that immune responses to the peptide(s) result in recognition of native-protein epitopes. […] Cross-reactivity of peptide epitopes with native protein was examined by ELISA.

recombinant DbpA = experiment: Delayed-type hypersensitivity (DTH) to DbpA, footpad swelling in immunized mice; format: in vivo, B. burgdorferi
Protocol: (§1) Mice were immunized with recombinant DbpA (SEQ ID 1), P2 (SEQ ID 3), P4 (SEQ ID 5), P5 (SEQ ID 6), P4/P5 (SEQ ID 5/SEQ ID 6), P9 (SEQ ID 10), or the corresponding lysine modified counterparts (P2 Mod, P4 Mod, P5 Mod or P9 Mod) using the immunization schedule established by Hanson (11). Briefly, mice were immunized with 20 μg of protein or peptide in complete Freund's adjuvant (CFA) (Week 1), boosted at week 4 with the same dose in incomplete Freund's adjuvant (IFA) and infected at week 6.
Native C3H/HeJ mice immunized with DbpA (SEQ ID 1), P2 (SEQ ID 3), P4 (SEQ ID 5), P5 (SEQ ID 6), P4/P5 (SEQ ID 5/SEQ ID 6), P9 (SEQ ID 10), or the corresponding lysine modified counterparts (P2 Mod, P4 Mod, P5 Mod or P9 Mod) were challenged with 2 μg of recombinant DbpA in PBS (50 μl/footpad) 7 weeks after the initial immunization. All footpads were measured before and 24 h after challenge using a spring-loaded micrometer (Mitutoyo, Tokyo, Japan) as described (23). The mice were anesthetized as described above during footpad measurements and injections. Swelling was determined by subtracting the footpad measurements before challenge from those taken 24 h after challenge.
DTH is an in vivo method of testing T cell-dependent immune responses that are manifested by inflammation at the site of antigenic challenge. Mice immunized with DbpA (SEQ ID 1), P2 (SEQ ID 3), P4 (SEQ ID 5), P5 (SEQ ID 6), P4/P5 (SEQ ID 5/SEQ ID 6) combined, P9 (SEQ ID 10), or the corresponding lysine-modified peptides were challenged in the footpad with 2 μg of recombinant DbpA (SEQ ID 1). Footpad measurements were taken before and after challenge as described above. DbpA (SEQ ID 1)-immunized mice developed a significant footpad swelling of 53.3±3.5 (not shown) compared to mice immunized with adjuvant alone or naive mice receiving only the DbpA (SEQ ID 1) challenge. Peptide-immunized mice, with the exception of P2 (SEQ ID 3), also developed a significant DTH response to DbpA (SEQ ID 1) compared to the lysine-modified controls.

[2] = test system: B. burgdorferi strain B31; experiment: Blood cultures for spirochetes after infection of immunized mice; format: in vivo; details: immunized C3H/HeJ mice, blood 7 days post infection with 10^4 Borrelia i.d.
Protocol: as §1
(§2) Low-passage B. burgdorferi strain B31 (passage 5) was used in this study and cultured in BSK II (Barbour-Stoenner-Kelly) medium at 34° C. (22). Bacterial cultures were incubated in CO2-enriched atmosphere in a GasPak chamber (BBL, Baltimore, Md.) containing BBL GasPak Plus envelopes and a GasPak anaerobic indicator (Beckton dickinson, Cockeysville, Md.) until the cells reached log phase. Bacterial counts were determined using dark field microscopy and a Petroff-Hausser chamber.
(§3) Mice (15 mice/group) were anesthetized with Metofane (methoxyflurane; Pitman-Moore, Mundelein, Ill.) and 10 mice/ group were infected i.d. at the base of the tail with 10^4 Borrelia in 100 μl of media 6 six weeks after the first immunization. The remaining 5 mice/group were tested for a DTH response to recombinant DbpA. Following infection, mice were bled 7 and 14 days postinfection. […]

[3] = test system: B. burgdorferi strain B31; experiment: Joint cultures for spirochetes after infection of immunized mice; format: in vivo; details: immunized C3H/HeJ mice, joints 14 days post infection
Protocol: as §1, §2, §3

[4] = test system: B. burgdorferi strain B31; experiment: Arthritis assessment, histopathology of hind tibiotarsal joints of immunized infected mice; format: in vivo
Protocol: as §1
Mice (15 mice/group) were anesthetized with Metofane (methoxyflurane; Pitman-Moore, Mundelein, Ill.) and 10 mice/ group were infected i.d. at the base of the tail with 10^4 Borrelia in 100 μl of media 6 six weeks after the first immunization. The remaining 5 mice/group were tested for a DTH response to recombinant DbpA. Following infection, mice were bled 7 and 14 days postinfection. Serum was collected for antibody analysis and blood cultured for the detection of live spirochetes by inoculating 5 ml of BSK II medium with 50 μl of blood from each infected mouse and cultured for 2 weeks at 34° C. as described above. Also on day 14 postinfection, mice were sacrificed and one hind tibiotarsal joint, heart, bladder, and a 3 mm skin biopsy from the ear were aseptically removed and inoculated into separate tubes containing 6 ml of BSK II medium with antibiotics (50 μg/ml rifampacin and 100 μg/ml phosphomycin (Sigma), and incubated for 2 weeks at 34° C. as described above. Evidence of arthritis was determined by histopathological examination of formalin-fixed hind tibiotarsal joint samples.
Evidence of arthritis was determined by histopathological examination of formalin-fixed hind tibiotarsal joint samples. Tissues for histological examination were embedded in paraffin and stained with hematoxylin and eosin. All sections were examined without knowledge of the vaccination status of the mouse. Arthritis was scored by one of two methods. A positive/negative assessment was used, as well as assignment of an arthritis severity score. Joints were scored according to the levels of infiltrate (neutrophils) as follows: 0, no arthritis, 1, minimal or rare (≦10% tissue involvement); 2, mild (10-20%); […]; and 4, severe (>50%).
A similar trend was also observed for joints examined for arthritis (Table I). DbpA-(SEQ ID 1), P4-(SEQ ID 5), and P5-(SEQ ID 6) immunized mice had the lowest arthritis ratings (0.2, 1.2, and 0.4, respectively) and lowest arthritis incidence (20, 60, and 20%, respectively).

decorin = target: T1, decorin (Bos taurus, UniProt P21793); experiment: Western ligand blot with digoxigenin-labeled decorin; format: binding, bovine; details: SDS-PAGE reducing, probed with digoxigenin-labeled decorin
T1 construct: Decorin from bovine fetal skin was purified and stored in 4 M guanidine hydrochloride; from tissue; host or cells: decorin from bovine fetal skin; DbpA made in E. coli JM101
T1 sequence (P21793 31-360): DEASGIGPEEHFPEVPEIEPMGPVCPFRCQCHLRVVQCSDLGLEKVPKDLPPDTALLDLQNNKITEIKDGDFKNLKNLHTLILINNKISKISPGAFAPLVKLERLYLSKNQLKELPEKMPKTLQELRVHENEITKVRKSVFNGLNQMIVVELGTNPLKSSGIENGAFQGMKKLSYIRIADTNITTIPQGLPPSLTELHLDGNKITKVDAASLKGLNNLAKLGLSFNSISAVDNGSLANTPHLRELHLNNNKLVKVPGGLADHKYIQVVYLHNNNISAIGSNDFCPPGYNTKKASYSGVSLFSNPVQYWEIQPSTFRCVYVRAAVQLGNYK
Protocol: Decorin from bovine fetal skin was purified and stored in 4 M guanidine hydrochloride at −80° C. and dialyzed extensively against PBS before use. Decorin was labeled with digoxigenin-3-O-methylcarbonyl-ε-aminocaproic acid-N-hydroxy-succinimide ester (digoxigenin) (Boehringer Mannheim, Indianapolis. Ind.) according to the manufacturer's instructions and stored at −20° C. To label decorin with biotin, 7.5 mg of NHS-LC-Biotin (sulfosuccinimidyl-6-(biotinamido) hexanoate) (Pierce, Rockford, Ill.) was dissolved in 100 μl of dimethyl sulfoxide and combined with 0.5 mg of decorin and 0.5 ml of 0.2 M sodium borate (pH 8.0) in a total reaction volume of 1 ml.
Proteins (purified DbpA, DbpA site-directed mutants and OspC) were subjected to SDS-PAGE (reducing conditions) and probed with rabbit anti-DbpA polyclonal sera (R625) or with digoxigenin-labeled decorin.
Further, the side chains of lysine residues were chemically modified and the binding properties of the resulting protein examined. […] Both forms of DbpA migrated as two bands, monomers at 20 and 21 kDa and dimers at 40 and 42 kDa for DbpA and chemically modified DbpA (K-mod), respectively. The decorin binding activity of the DbpA and lysine-modified DbpA was examined in a Western ligand blot assay (FIG. 6B).

B1: DbpA: recombinant decorin binding protein A of B. burgdorferi strain 297, N-terminal His-tag fusion (protein)
chain: MIKCNNKTFNNLLKLTILVNLLISCGLTGATKIKLESSAKAIVDEIDAIKKKAASMGVNFDAFKDKKTGSGVSENPFILEAKVRATTVAEKFVIAIEEEATKLKETGSSGEFSAMYDLMFEVSKPLQELGIQEMTKTVSMAAEENPPTTAQGVLEIAKKMREKLQRVHKKNQDTLKKKNTEDSTAKS
modifications: N-terminal His-tag; Borrelia Burgdorferi
recognition by anti-DbpA serum (ELISA, O.D. 410 nm) [1]: recognized | DTH response to DbpA (in words) (recombinant DbpA; C3H/HeJ mice immunized with 20 μg, challenged with 2 μg recombinant DbpA in footpad, 24 h): significant inflammation | footpad swelling (recombinant DbpA; C3H/HeJ mice, 24 h after challenge with 2 μg recombinant DbpA, mean±SE): 53.3±3.5 | positive blood cultures [2]: 50-60% | positive joint cultures [3]: 20% | arthritis incidence and severity (in words) ([4]; immunized infected mice): lowest | % Incidence (arthritis) ([4]; immunized mice, day 14 post infection, tibiotarsal joint histology): 20% | Mean Arthritis Rating ([4]; severity score 0-4 by neutrophil infiltrate, day 14 post infection): 0.2 | decorin binding in Western ligand blot (decorin): bound digoxigenin-labeled decorin

Source: patent US6517838B1, “Decorin binding protein essential peptides and methods of use” (The Texas A&M University System, priority 2000, dated 2003)
